A short description of this data set: label from the status in PepcDB records.

Regarding “MTEAIVASVATEPSLRPLAVLLVPLVTVGLIFLSKNRPNIREAWSILAAVTMFGIVASMVPDVLNGRVHETDLGFFVEGIELVLRADGLGMLFALVASGLYVVTAIYSIGYMRGHHEPFQTRFFAMLCASVGAALGVAFASNLFMLLVFYEVLTLATYPLVAHDESEKARVSGYKYLAYALSGGLAVFGGMLAVYWLTDPSTITFTRGGIEGLATVAAADPWAARGAFALLAGGFAVKAAVMPLHSWLPSAMVAPTPVSGLLHAVAVVKAGAFGVARTIIDVFGPETVRQIGMGLPLTIAAGATILIASLFALRQDNLKARLAYSTIAQLSYIVLGLSLLSGMGLMGGLLHIPAHAFSKLTLFLCAGALYVELDVKYISEMAGVGKRMPVTMGAFGLASFSMAGIPLMAGFVSKWHLIWGGAEAGYLLVAPLLVLSGVLNVAYFWPIIYTAFFESEDDADQKPVLDNPFGGVFDDDAYLTDGGVSSDDQHEDDSHDDHHDDGHHARPELPPAGGWDRSNWYGGETTLLLVAPLVTTATLMFIFGVAPDYIVFFDLIEGIVDGALEVDN”, the protein production entry is recorded as “failed”.
Consider “MTEARKIPKPSFPYGSPGELNSFLPYLLTRITHIWSSELNQALASEKLPTPKLRLLSSLSAYGELTVGQLATLGVMEQSTTSRTVDQLVDEGLAARSISDADQRKRTVVLTRKGKKKLAEISPLINDFHAELVGNVDPDKLQTCIEVLGEILKGKTDY”, for which the protein production entry is recorded as “not failed”.
The result for “MTEEQFSSYHPPLPPTTEEDRFSWLRLLRSRRVGPTTFRRLMHEHGTAQNALAALPEVARAAGVEGYEICPPGVVEAELKAAKAAKARLLCLGDADYPSHLAGISDAPPLLWLLGDPALLRRPMIALVGARNASSLGTRMARALAQDLGTAGFVVVSGLARGIDTAAHLAALPSGTIAVMAGGVDTVYPAENTHLAADIAQHGLRLSEQPMRLTPQARHFPRRNRIISGLAQAVVVVEAAAKSGSLITARDALDQGREVLAVPGHPFDARAAGCNMLIRDGAHLVRNAEDVITALPALTAPQPQPDLCDLMQQPAPPAKRSLRETVALHSLILDRLGPSPVAEDQLIRDLAASPGEVAPVLVDLELEGRINRQAGGLLSRVN” reads “failed”.
In the case of “MTEKFGAKSTADEVLSGVDLRGKRFLITGVSSGIGLETARALVAHGASVVGAVRDRAKAERATASVRDAASQGGGTLELTELDLASLQSIRACADRLLADGRRFDSIIANAGVMATPFARTADGFELQFGTNHLGHFALVNRIASLLADNGRLVVLSSQAHRVADVDLDDPNFERQAYDPWVAYGRSKTATSLFAAEFDKRHRDRGIRAASVMPGNSLTDLPRHLRQEDLQGLFETVGKARAEAGLPPAELKDIPQVAATSVWAAVVADKDEIGGHYLDDCAVAPINDTPNPFADGVRSYALDADKAKRLWAKSEEWIGANTAAI” it was “failed”.
As for “MTELNFHLLPIISDRFTTTTTTSPSFSSHSSSSSSLLSFTKRRRKHQPLVSSIRMEQSRSRNRKDKVVVILGATGAGKSRLSVDLATRFPSEIINSDKIQVYEGLEITTNQITLQDRRGVPHHLLGVINPEHGELTAGEFRSAASNVVKEITSRQKVPIIAGGSNSFVHALLAQRFDPKFDPFSSGSCLISSDLRYECCFIWVDVSETVLYEYLLRRVDEMMDSGMFEELSRFYDPVKSGLETRFGIRKAIGVPEFDGYFKEYPPEKKMIKWDALRKAAYDKAVDDIKRNTWTLAKRQVKKIEMLKDAGWEIERVDATASFKAVMMKSSSEKKWRENWEEQVLEPSVKIVKRHLVQN”, the protein production result is “failed”.
In the case of “MTEPATAESAPAALREMRWWDIDPVLRMERELFPEDAWSRGMFWSELAHARGPGATRRYLVAEEDGHVVGYAGLVTSGEQADVQTIAVARDHWGTGLGARLLTELLRAATDFECTEVLLECRVDNTRAQRLYERFGFEPIGFRRGYYQPGNVDALVMRLTDPSTSVPGTERGTENHG” it was “failed”; in that of “MTEQSAHEKYEFKKKLEGLRDKKGRSTELISLYIPPDKQIFDVTNQLKDEHGQAANIKSKLTRTNVQGAIESLLSRLRYLDKVPENGIVYFTGAVDIGANKTSMESEVIVPPDPITVYKYHCDSSFYLEPLEDMLKDKNTYGLLVLDRREATIGLLVGKRIQPFRNLTSTVPGKQRKGGQSAHRFQQLRLIAIHDFYKRIGDAASEVFMAVDHKDLKGVLIGGPSPTKEEFHAGEFLHHELMKKILGLFDTAYTDESGLSELVNAAGEKLQDLELMGQKNAVRDFFKELIADSGKVAYGESQVRANLEINSVDVLLLSEDLRAERVTTKCSVCGYENKWTRRWKPGEPAPAAGNCPKCGSSLEVTDVTDIVDEFSELADKSNAKVVFVSTDFDEGSQLMNAFGGIAAILRYNTGV”, “failed”; in that of “MTERGLLIVLSGPSGVGKGTVREAVFKDPETSFDYSISMTTRLPREGEQDGVDYYFRSREVFEQAIKDGKMLEYAEYVGNYYGTPLEYVEEKLAAGVDIFLEIEVQGAMQVRKAMPEGIFIFLTPPDLSELKNRIIGRGTESMEVVEERMETAKKEIEMMASYDYAVVNDVVANAVQKIKGIVETEHLKTERVIHRYKKMLEGLQ”, “not failed”.
As to “MTESKKLWTGHIHLGEKVDFGVILNQLCQAFNGSPFFSHNAMQMRVIDNQIEGYIDMQPYLIGNVAFQILHGGVAATLLDSIGGIVAMAEIYRRAEATEMAEAIKKVSRLATVDMRVDYLAPGRGQYFIARAEVLRFGRKGCTMRMNLINDENKAIATAIASYAF”, the protein production result is “failed”.
The result for “MTESVARLRGEQLTLGYGKYTVAENLTVEIPDGHFTAIIGPNGCGKSTLLRTLSRLMTPAHGHVWLDGEHIQHYASKEVARRIGLLAQNATTLGDITVQELVARGRYPHQPLFTRWRKEDEEAVTKAMQATGITHLADQSVDTLSGGQRQRAWIAMVLAQETAIMLLDEPTTWLDISHQIDLLELLSELNREKGYTLAAVLHDLNQACRYASHLIALREGKIVAQGAPKEIVTAELIERIYGLRCMIIDDPVAGTPLVVPLGRTAPSTANS” reads “failed”.
The result for “MTETKPRIAIRYCTQCNWLLRAGWMAQEILQTFASDIGEVSLIPSTGGLFEITVDGTIIWERKRDGGFPGPKELKQRIRDLIDPERDLGHVDRTKHEGLDT” reads “not failed”.
In the case of “MTEVALSPRGRSVAYTVRRLSPGQAPAPRARLYVARTSGRDDPRLLFQDEHDIRAPAWHPDGTHLAFVRPVNGTPQVFVIPLNGGVPYRLTDTPHGAQAPQWGPDGERLLFASHVPEPAVRRQTARRPPTERPGRTASDTIRTPPPDTLLVLRHDRTLRPVDTLAVDADGRPQTPTDTTDTLHVPRHSSLSDTLTAPPVRRLAGLSPDSLQAVFDRFRLRSDTTTVAVRPDTAAAPNGTLAQVRRWMHQNRRSGTALVSSRLEIQGERQLRPTPTYRHHYVVDLPAGIRSGRPPRPTPRLLTGGYRSYGQADWLPGGEQVVVSGMPATNESPDRVRRRNLYVADLNTPRLRRLLRIENHTLTSPSVTTDGSTVAFRVESLAPSSDAPAEIGLFALDGRSQPRILTSALDRDVTSVTWAPDGWYLYTTAPSEGGRPLFRFTPFAQDTTDGAPQAPSPTLPTDRATSRNTFTFDSTMVRPAEAEQLTSAARAIHSFDVTDATAVYASTDPTTPSALYANTVSFNNERPLATPNAEWLSRRQVAPPDRMTVSHDSLAVTGWVTRPVAFADSLRHPLFVQARGGPPALSAPYTPEAWFERQYLTGRGLGLVEGFPRGSAGFGTAFRRANDKNWGPGPARDILALADSAAALSWTDSTRVALGGTGYGGTLTAWILGRTNRFAAAVALNGVYDLPALLGGGRAWRLVPAEFGGYPWDGVPPRSLGDPVLSSRLPSPDSTAQTPWTALHRNSPLTYAHRIRTPLLLMQGGADRRVGPSQGERLYKRLKILDRPVEYVRYPEVGHDMSASASPRQRLDRLVRTYEFLARFLEPPAPPTAPQSPPRP” it was “failed”; in that of “MTEWYVVLPATILLIALSAFFVIIEFALLAARRNRLEETVETSRSSRAALRSLNELTLMLAGAQLGITMVTFALGAITKPWVHYALMPLFEWARIPLVMADVIAFILSLFIVTFLHLVIGEMAPKSWAIAHPETALRTIAIPARGFINLFRPLLQWINKMANDLVRKVGETPVDRAAAGGYDTDTLHALIEHSRETGALDQQSAAQISGIIKLDKITVGQTLTASPFTHSASATVAEVQAAAQRSGSLRVLIDAPSHLFPHVIHVRDTLGASPDEKASKWSRPILTVAETDTLHQALEYMREHNEQISAVLSADGKTVLGVITWDHILKYLWPASV”, “failed”.
On to “MTEYKQEQEMEIEALEAILMDEFKEIHSSESGLNTSNRCFQITVTPQDDELEELAIPPVQLALVFSHTENYPDEAPLLDVKSIRGIHVSDLTILKEKLEQEASENLGMAMIYTLVSSAKDWLSEHYGQDDAAEFAEVEAAKEDEVIVPHGEPVTLETFLAWRERYEAELALERAKLMPESALTAPKEKKLTGRQWFESGRGRGTVVIADEEDEEEDEEDIDFEDEDFEDDEEDMLEHYLAEKSDSSAPPTRT”, for which the protein production entry was “failed”.
As for “MTFAWGRGSHGGAGMRIVQITDTHFSPTKAHFNGNWAPLAAWIEQSGADLVIHTGDLSVDGADRDDDIAFCMDLMREISAPMLLVPGNHDVGHLPGSLQPVNAGRLERWRRLVGPDYWMEDAGSWRLIGLDSLLMGFDDAEEEAQFDWLRTVLESRGGRRVALFAHKPLFVDAPGEGDTGYWSVRPAQRQRLYDLIATHDVALFASGHLHRAWQGKYENTSLVWGPSAAFVVGDMERDMPGERLLGAVIHQFSDTVTSEIVAIPGMTAYVLDDVVAEVYPHEAHKARKRVASLEHHHHHH”, the protein production result was “failed”.
The result for “MTFEDLHEYLDYLAKKNDLVTITEEVDPNLDLTYILSEEERMGRGRTILFKNVKGSQVPAVGNLFSTNEKLKAVLGDDPYSIGVKIADIVKPPRDSESFIGKGLEMMRELSGLRPKVSNSIPSGYSELEKVDLYRYPICKTWPDDGGPFITLPLVITKDPSTGIRNMGMYRMQVYDSETTGMHWHIHKGGSENFLKEKEKGKAMDVAVVIGSDPLTIFSAVAPLPNGIDEFMFRGLISRKRSELVKGKTVDLEYPRNFEIVLEGYIDPSETRVEGPFGDHTGYYSLEEEFPVFHVKNIIERNDRIYPTTIVGKLWHEDVVLGKAVERMFLPLIQMVLPEVVDINTMEEAVFHNMVIVSIKKRYPGHAKKVMFALWGLGQLMFSKIIVVVDDDINIHNRKELIWAMTTRIDPDRDVIIIPGTVTDSLDHAAPLFNYGSKMGIDATKKDKSEGYTRRWPDVLEMPKDVVDKVRQIMKNNRLIQLEHHHHHH” reads “failed”.
In the case of “MTFEEFKDRLFALAKKNGVEVQISFLETREFSLRLANGDLDQYTDAGKFNVEIKVLKDGKTGTFRTQVLENPEKCFEEALSNLQVKDSEEKEYFFEGGKEYREMETYVGRFEKLSVKEKMDMAKKAHESAAKDERVVMVPTVMYKDMVIKKIITNTLGLDVESQMDGGFLFAMAIARDANPRSGSWYELARTPEDLNPEEIGKRAAEEAISLIGSKTIPSGKYPVLMRNTALLDLMEMFIPMISAENVQKNLSPLKGKLGEQVGNPAVSIKDLPYHPKGLSSTPFDDEGVPTTEKFVLENGVLKTFLHNLKTARKEGVEPTGNGFVGGIRPVNLMLMPGEKSFEELLKEMDRGVVITEVEGMHAGANSISGEFSLFAKGYWVENGEIAHGVEDITISGNFLDLLRKIVLVGNDVKVSQHTIAPSVLVEVLDVAGK” it was “not failed”.

(Values after a protein production outcome set (Wang et al. 2014).)
